Source: article PMC11229372, “New Drosophila promoter-associated architectural protein Mzfp1 interacts with CP190 and is required for housekeeping gene expression and insulator activity”

What was measured:
[1] = target: T1, MBP-Mzfp1 MADF1-MADF2 (Drosophila melanogaster, UniProt Q1LZ24 100-434); experiment: EMSA; no specific binding; 0.1 mM ZnSO4, poly(dI-dC); PBS pH 8.0, 5 mM MgCl2, 0.1 mM ZnSO4, 1 mM DTT, 0.1% NP-40, 10% glycerol, poly(dI-dC), room temperature, 30 min; 5% native PAGE in 0.5x TBE; details: protein: recombinant; tags: MBP; label: Cy5; blunt
T1 sequence: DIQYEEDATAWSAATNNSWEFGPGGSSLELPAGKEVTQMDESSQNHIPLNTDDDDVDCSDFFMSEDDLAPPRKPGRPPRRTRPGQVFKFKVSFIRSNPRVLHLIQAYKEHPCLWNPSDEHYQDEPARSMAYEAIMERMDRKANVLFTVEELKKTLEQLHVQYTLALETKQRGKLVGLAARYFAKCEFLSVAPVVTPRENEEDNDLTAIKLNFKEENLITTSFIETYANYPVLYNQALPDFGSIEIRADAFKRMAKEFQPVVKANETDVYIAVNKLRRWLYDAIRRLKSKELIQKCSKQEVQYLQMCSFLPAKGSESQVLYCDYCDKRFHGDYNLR

[2] = target: T2, MBP-Mzfp1 full-length (Drosophila melanogaster, UniProt Q1LZ24 1-586); experiment: EMSA; 0.1 mM ZnSO4, 5 mM MgCl2, poly(dI-dC); PBS pH 8.0, 5 mM MgCl2, 0.1 mM ZnSO4, 1 mM DTT, 0.1% NP-40, 10% glycerol, poly(dI-dC), room temperature, 30 min; 5% native PAGE in 0.5x TBE; details: protein: recombinant; tags: N-terminal MBP; label: Cy5; blunt
T2 sequence: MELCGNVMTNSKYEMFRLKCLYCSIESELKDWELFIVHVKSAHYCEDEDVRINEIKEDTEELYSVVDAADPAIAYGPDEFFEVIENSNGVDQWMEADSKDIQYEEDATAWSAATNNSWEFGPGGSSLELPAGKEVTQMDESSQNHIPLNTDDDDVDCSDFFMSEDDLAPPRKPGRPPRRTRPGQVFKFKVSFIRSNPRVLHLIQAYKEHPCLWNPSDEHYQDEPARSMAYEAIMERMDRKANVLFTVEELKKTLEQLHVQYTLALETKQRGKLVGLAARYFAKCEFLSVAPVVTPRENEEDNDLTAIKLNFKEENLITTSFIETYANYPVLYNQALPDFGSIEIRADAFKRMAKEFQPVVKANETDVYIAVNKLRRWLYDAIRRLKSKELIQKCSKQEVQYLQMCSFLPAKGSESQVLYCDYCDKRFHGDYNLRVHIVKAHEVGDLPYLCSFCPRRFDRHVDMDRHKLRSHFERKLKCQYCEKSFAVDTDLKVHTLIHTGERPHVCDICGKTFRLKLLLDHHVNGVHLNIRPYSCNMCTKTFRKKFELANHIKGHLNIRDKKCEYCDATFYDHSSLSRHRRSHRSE

B1: Mzfp1x4 (dsDNA)
DNA 1: GAATTCTAAGCTCTTTGTCGATATCTTGACACACCTATATGATTACTAAGCTCTTTGTCGATATCTTGACACACCTATATGAATTCTAAGCTCTTTGTCGATATCTTGACACACCTATATGATTACTAAGCTCTTTGTCGATATCTTGACACACCTATATGAATTCCTGCAG
DNA 2: CTGCAGGAATTCATATAGGTGTGTCAAGATATCGACAAAGAGCTTAGTAATCATATAGGTGTGTCAAGATATCGACAAAGAGCTTAGAATTCATATAGGTGTGTCAAGATATCGACAAAGAGCTTAGTAATCATATAGGTGTGTCAAGATATCGACAAAGAGCTTAGAATTC
B1: no binding [1]; binds [2].
